Measurements taken from publication doi:10.1101/2023.11.14.566657 (bioRxiv, 2023).

Assays:
mass photometry = biological target: the molecule itself; experiment: mass photometry
RAD52 IBD = biological target: T1, RAD52 IBD (human, UniProt P43351 1-418, K152A;R153A); experiment: mass photometry
T1 sequence: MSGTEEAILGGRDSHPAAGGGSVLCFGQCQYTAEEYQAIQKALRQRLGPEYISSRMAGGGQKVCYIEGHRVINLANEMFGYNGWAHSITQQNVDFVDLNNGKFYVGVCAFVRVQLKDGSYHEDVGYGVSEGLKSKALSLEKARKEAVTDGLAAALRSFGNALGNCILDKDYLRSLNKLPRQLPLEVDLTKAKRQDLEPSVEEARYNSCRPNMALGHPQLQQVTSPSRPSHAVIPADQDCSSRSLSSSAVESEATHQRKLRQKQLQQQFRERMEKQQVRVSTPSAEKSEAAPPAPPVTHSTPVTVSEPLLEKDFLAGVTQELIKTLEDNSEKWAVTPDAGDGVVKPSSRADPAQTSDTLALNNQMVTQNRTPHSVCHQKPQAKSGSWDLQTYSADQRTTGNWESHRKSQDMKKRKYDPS

RAD52 wild type [1] = biological target: T2, RAD52 wild type (human, UniProt P43351 1-418); experiment: mass photometry
T2 sequence: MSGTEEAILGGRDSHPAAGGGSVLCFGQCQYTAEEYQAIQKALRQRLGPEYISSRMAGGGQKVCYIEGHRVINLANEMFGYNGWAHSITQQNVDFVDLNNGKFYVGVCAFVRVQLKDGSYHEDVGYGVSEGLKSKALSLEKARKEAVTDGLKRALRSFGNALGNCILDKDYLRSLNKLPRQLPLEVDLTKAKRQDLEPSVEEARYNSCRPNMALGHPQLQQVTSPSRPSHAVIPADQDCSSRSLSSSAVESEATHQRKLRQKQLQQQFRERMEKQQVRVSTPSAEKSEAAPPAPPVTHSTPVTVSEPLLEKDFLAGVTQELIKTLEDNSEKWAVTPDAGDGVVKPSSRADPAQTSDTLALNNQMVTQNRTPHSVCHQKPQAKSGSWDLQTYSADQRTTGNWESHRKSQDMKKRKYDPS

RAD52 wild type;SMARCAL1 = biological target: T3, RAD52 wild type;SMARCAL1 (human;human?, UniProt P43351;Q9NZC9 1-418;1-954, |); experiment: mass photometry
T3 sequence 1: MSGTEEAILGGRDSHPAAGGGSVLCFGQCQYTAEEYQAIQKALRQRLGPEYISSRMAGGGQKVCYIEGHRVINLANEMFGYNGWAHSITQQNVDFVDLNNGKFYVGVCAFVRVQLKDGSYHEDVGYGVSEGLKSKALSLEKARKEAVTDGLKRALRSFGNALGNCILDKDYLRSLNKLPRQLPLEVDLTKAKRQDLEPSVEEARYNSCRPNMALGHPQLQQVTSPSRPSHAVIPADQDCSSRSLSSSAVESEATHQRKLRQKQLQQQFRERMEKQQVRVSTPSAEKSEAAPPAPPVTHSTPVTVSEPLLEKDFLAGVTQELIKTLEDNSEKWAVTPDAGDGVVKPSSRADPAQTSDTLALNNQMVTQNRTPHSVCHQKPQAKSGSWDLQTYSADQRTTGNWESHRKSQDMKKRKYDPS
T3 sequence 2: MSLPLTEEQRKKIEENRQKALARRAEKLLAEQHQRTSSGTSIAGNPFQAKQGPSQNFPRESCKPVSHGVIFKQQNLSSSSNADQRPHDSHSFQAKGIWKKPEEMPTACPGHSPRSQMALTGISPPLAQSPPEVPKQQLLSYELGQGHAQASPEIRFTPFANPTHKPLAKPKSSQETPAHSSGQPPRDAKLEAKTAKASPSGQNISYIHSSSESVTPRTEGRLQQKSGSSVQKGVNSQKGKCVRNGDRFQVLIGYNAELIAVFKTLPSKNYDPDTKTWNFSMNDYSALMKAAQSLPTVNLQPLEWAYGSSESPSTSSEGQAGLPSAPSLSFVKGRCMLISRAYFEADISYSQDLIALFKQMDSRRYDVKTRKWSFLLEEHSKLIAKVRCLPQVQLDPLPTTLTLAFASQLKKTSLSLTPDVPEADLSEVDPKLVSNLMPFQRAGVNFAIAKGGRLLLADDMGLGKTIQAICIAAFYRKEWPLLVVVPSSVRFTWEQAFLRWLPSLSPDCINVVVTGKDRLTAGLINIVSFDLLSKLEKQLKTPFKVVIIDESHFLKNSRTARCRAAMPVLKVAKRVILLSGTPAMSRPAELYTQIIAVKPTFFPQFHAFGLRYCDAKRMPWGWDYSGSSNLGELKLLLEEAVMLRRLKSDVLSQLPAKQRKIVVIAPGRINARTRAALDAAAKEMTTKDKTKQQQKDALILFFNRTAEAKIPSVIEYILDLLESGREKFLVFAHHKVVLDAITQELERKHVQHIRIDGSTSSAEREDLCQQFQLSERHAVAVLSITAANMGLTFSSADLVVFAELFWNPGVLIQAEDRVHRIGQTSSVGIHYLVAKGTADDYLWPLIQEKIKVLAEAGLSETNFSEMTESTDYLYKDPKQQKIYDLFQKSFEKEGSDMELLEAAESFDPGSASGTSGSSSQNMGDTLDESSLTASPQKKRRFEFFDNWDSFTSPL

SMARCAL1 = biological target: T4, SMARCAL1 (UniProt Q9NZC9 1-954); experiment: mass photometry
T4 sequence: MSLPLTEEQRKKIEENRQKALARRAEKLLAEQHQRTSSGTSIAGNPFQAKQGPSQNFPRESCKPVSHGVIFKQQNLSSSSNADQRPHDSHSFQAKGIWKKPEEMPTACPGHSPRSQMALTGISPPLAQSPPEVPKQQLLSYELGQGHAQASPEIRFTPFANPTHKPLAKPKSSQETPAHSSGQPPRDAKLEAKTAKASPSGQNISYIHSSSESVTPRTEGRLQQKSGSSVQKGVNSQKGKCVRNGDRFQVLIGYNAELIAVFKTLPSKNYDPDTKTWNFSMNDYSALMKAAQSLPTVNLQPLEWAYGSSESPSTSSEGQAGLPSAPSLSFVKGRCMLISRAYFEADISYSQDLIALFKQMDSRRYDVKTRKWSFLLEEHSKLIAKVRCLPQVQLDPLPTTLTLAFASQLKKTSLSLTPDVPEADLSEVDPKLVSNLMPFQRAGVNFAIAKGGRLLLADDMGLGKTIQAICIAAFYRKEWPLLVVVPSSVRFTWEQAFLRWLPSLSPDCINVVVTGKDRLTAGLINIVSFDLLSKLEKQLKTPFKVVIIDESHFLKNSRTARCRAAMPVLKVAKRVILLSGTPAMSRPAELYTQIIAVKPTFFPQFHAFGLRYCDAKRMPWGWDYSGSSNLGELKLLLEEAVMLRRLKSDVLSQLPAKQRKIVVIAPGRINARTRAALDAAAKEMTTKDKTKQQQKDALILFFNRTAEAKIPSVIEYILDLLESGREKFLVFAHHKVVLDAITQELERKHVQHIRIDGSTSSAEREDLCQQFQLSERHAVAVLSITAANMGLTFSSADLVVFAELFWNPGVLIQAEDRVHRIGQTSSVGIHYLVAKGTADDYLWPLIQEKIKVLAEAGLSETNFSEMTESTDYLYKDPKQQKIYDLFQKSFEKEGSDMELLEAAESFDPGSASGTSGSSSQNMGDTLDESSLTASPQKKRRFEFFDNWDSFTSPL

RAD52 wild type;RPA = RAD52 wild type;RPA (human;human?, UniProt P43351;P27694;P15927;P35244 1-418;1-616;1-270;1-121, |); experiment: mass photometry
Chain of RAD52 wild type;RPA (P27694 whole entry, chain 2 of 3): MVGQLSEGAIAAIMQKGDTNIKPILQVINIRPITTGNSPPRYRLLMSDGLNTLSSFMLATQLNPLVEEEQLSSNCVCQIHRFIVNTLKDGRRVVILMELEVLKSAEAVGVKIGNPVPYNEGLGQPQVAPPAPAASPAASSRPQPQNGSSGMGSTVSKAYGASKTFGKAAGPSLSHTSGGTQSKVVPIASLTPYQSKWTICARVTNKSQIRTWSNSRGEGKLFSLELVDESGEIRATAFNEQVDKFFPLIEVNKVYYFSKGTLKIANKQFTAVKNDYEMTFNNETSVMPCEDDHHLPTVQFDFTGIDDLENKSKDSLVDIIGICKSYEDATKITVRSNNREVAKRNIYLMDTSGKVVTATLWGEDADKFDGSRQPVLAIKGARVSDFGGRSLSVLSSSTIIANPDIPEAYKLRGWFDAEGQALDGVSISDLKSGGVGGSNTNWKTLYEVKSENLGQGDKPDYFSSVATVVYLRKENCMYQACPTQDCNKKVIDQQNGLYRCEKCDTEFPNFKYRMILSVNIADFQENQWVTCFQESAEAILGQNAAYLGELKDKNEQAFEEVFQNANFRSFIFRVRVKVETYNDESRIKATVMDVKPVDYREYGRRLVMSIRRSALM
Chain of RAD52 wild type;RPA (P15927 whole entry, chain 3 of 3): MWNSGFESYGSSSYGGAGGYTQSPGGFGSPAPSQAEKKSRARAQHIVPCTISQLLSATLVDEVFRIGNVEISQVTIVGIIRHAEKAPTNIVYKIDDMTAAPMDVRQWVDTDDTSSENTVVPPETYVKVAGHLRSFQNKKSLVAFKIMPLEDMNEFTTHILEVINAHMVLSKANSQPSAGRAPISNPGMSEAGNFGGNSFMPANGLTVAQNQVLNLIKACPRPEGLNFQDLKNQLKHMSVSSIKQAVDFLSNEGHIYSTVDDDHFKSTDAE
Chain of RAD52 wild type;RPA (P35244 whole entry, chain 4 of 3): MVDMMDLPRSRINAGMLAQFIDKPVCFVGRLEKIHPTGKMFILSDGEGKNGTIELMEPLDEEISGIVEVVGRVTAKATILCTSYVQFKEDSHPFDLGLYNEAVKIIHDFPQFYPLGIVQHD

RPA = RPA (UniProt P27694;P15927;P35244 1-616;1-270;1-121); experiment: mass photometry
Chain of RPA (P27694 whole entry, chain 1 of 3): as the sequence (P27694 whole entry, chain 2 of 3) above
Chain of RPA (P15927 whole entry, chain 2 of 3): as the sequence (P15927 whole entry, chain 3 of 3) above
Chain of RPA (P35244 whole entry, chain 3 of 3): as the sequence (P35244 whole entry, chain 4 of 3) above

RAD52 wild type [2] = biological target: T2, RAD52 wild type; experiment: P1 nuclease footprinting
RAD52 wild type [3] = biological target: T2, RAD52 wild type; experiment: P1 nuclease footprinting; remark: listed apart in the source

B1: 6xHis-tagged human RAD52 protein (wild type) (natural protein)
chain: MSGTEEAILGGRDSHPAAGGGSVLCFGQCQYTAEEYQAIQKALRQRLGPEYISSRMAGGGQKVCYIEGHRVINLANEMFGYNGWAHSITQQNVDFVDLNNGKFYVGVCAFVRVQLKDGSYHEDVGYGVSEGLKSKALSLEKARKEAVTDGLKRALRSFGNALGNCILDKDYLRSLNKLPRQLPLEVDLTKAKRQDLEPSVEEARYNSCRPNMALGHPQLQQVTSPSRPSHAVIPADQDCSSRSLSSSAVESEATHQRKLRQKQLQQQFRERMEKQQVRVSTPSAEKSEAAPPAPPVTHSTPVTVSEPLLEKDFLAGVTQELIKTLEDNSEKWAVTPDAGDGVVKPSSRADPAQTSDTLALNNQMVTQNRTPHSVCHQKPQAKSGSWDLQTYSADQRTTGNWESHRKSQDMKKRKYDPS
stoichiometry N (mass photometry): 10

B2: heterologous fork, 30 nt gap (#6/#2/#3/#4) (mixed)
DNA 1: GGTATATTCAACAGTTCAACGACGAATGTTTTTTTTTTTTTTTTTTTTTTTTTTTTTTCTTTTGAGGCAGGCATGGTAGC
DNA 2: GCTACCATGCCTGCCTCAAAAGTTCGTAATATGCTACACACTGGAGTACCGGCATTCGTCGTTGAACTGTTGAATATACC
DNA 3: GGTACTCCAGTGTGTAGCATATTACGAACTTTTGAGGCAGGCATGGTAGC
DNA 4: GCTACCATGCCTGCCTCAAAAG
binding result (RAD52 IBD): binds | binding result (RAD52 wild type [1]): binds | binding result (RAD52 wild type;SMARCAL1): binds | binding result (SMARCAL1): binds | binding result (RAD52 wild type;RPA): binds | binding result (RPA): binds

B3: homologous fork, 30 nt leading gap (#1/#2/#3/#4) (mixed)
DNA 1: GGTATATTCAACAGTTCAACGACGAATGTTGGTACTCCAGTGTGTAGCATATTACGAACTTTTGAGGCAGGCATGGTAGC
DNA 2: GCTACCATGCCTGCCTCAAAAGTTCGTAATATGCTACACACTGGAGTACCGGCATTCGTCGTTGAACTGTTGAATATACC
DNA 3: GGTACTCCAGTGTGTAGCATATTACGAACTTTTGAGGCAGGCATGGTAGC
DNA 4: GCTACCATGCCTGCCTCAAAAG
binding result (RAD52 wild type [2]): binds

B4: heterologous fork P1 assay (#5/#2/#3/#4) (mixed)
DNA 1: GGTATATTCAACAGTTCAACGACGAATGTTGTGCATAACGTCGCTCCGTAGCTATACGCTTTTGAGGCAGGCATGGTAGC
DNA 2: GCTACCATGCCTGCCTCAAAAGTTCGTAATATGCTACACACTGGAGTACCGGCATTCGTCGTTGAACTGTTGAATATACC
DNA 3: GGTACTCCAGTGTGTAGCATATTACGAACTTTTGAGGCAGGCATGGTAGC
DNA 4: GCTACCATGCCTGCCTCAAAAG
binding result (RAD52 wild type [3]): binds
